Experiments:
Details in all cases: protein: recombinant; tags: 6xHis (pET-28a(+))
[1] = target: T1, GhWRKY27 (Gossypium hirsutum (CCRI74), UniProt A0A068LI73 1-355); assay: EMSA; self-competition; supershift with anti-GhWRKY27; LightShift Chemiluminescent EMSA Kit (Thermo), manufacturer's instructions; buffer, salt, pH and temperature not stated
[2] = target: T1, GhWRKY27; assay: EMSA; self-competition abolishes band; supershift with anti-GhWRKY27; LightShift Chemiluminescent EMSA Kit (Thermo), manufacturer's instructions; buffer, salt, pH and temperature not stated
[3] = target: T1, GhWRKY27; assay: competition; excess unlabelled mutant vs labelled N1; LightShift Chemiluminescent EMSA Kit (Thermo), manufacturer's instructions; buffer, salt, pH and temperature not stated

T1 sequence (A0A068LI73 entry or part of it): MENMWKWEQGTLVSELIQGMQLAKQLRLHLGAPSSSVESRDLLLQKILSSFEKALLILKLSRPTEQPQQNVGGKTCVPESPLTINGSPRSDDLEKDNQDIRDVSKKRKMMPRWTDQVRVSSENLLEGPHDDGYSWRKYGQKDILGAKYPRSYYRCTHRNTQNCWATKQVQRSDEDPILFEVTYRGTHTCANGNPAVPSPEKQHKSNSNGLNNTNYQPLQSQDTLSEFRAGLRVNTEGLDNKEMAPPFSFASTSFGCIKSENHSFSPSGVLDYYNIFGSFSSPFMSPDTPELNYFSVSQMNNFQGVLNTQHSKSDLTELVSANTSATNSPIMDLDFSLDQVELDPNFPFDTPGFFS

B1: GhRipen2-2 wild probe (dsDNA)
DNA 1: CTGGGCTCAGGTCAGAAAAGCTTTACTCGGGGCTTGACTCGTTTTCTAA
DNA 2: TTAGAAAACGAGTCAAGCCCCGAGTAAAGCTTTTCTGACCTGAGCCCAG
B1: binds [1].

B2: GhCYP94C1 wild probe (dsDNA)
DNA 1: CCAGCTCCTCGCGAAAAGAAAAATGACTAAAAAAATATTTAATTCTTAGT
DNA 2: ACTAAGAATTAAATATTTTTTTAGTCATTTTTCTTTTCGCGAGGAGCTGG
B2: binds [2].

B3: GhCYP94C1 mutant probe (dsDNA)
DNA 1: CCAGCTCCTCGCGAAAAGAAAAATGAAAAAAAAAATATTTAATTCTTAGT
DNA 2: ACTAAGAATTAAATATTTTTTTTTTCATTTTTCTTTTCGCGAGGAGCTGG
B3: no binding [3].

Source: paper PMC6440019, “The WRKY transcription factor GhWRKY27 coordinates the senescence regulatory pathway in upland cotton (Gossypium hirsutum L.)”
